Assays:
[1] = system: KGF; assay: RT-PCR analysis of KGF expression in foreskin fibroblast cells; format: cell-based; conditions: 100 nM for 2 hours, FIG. 4
Protocol: From foreskin fibroblast cells treated with 100 nM of the AIMP1 for 2 hours, the total RNA was extracted in the same manner as described in Example <1-2>. Then, the extract was amplified by RT-PCR using KGF-specific primers (SEQ ID NO: 8 and SEQ ID NO: 9). The control groups were amplified using cyclin D-specific primers (SEQ ID NO: 10 and SEQ ID NO: 11) and GADPH-specific primers (SEQ ID NO: 6 and SEQ ID NO: 7), respectively. The PCR reaction consisted of: predenaturation of the template DNA at 95° C. for 5 min, followed by 25 cycles of 1 min at 95° C., 1 min at 52° C. and 1 min at 72° C., and then, a final extension for 5 min at 72° C.
(§1) Foreskin fibroblast cells (5×10^4 cells/well) were cultured in 10% serum-containing DMEM medium on a 6-well plate about 12 hours, and then, cultured in serum-free medium for about 3 hours. Then, the cultured cells were treated with 100 nM of the N-terminal and C-terminal fragments of the AIMP1 prepared in Reference Example 1, at various time intervals of 0, 1, 2, 4, and 6 hours. Then, RT-PCR was performed in the same manner as in Example <1-2> using each of collagen-specific primers (SEQ ID NO: 4 and SEQ ID NO: 5), KGF-specific primers (SEQ ID NO: 8 and SEQ ID NO: 9) and GADPH-specific primers (SEQ ID NO: 6 and SEQ ID NO: 7).
(§2) Foreskin fibroblast cells (5×10^4 cells/well) were cultured in 10% serum-containing DMEM medium on a 6-well plate for 12 hours and then cultured in serum-free medium for about 3 hours. Next, the cultured cells were treated with each of the N-terminal fragments (SEQ ID NOS: 12, 13 and 14) and C-terminal fragment (SEQ ID NO: 15) of AIMP1 prepared in Reference Example 2 at an concentration of 100 nM for 2 hours and 6 hours, respectively. The treated cells were subjected to RT-PCR using collagen-specific primers (SEQ ID NOS: 4 and 5), KGF-specific primers (SEQ ID NOS: 8 and 9) and GADPH-specific primers (SEQ ID NOS: 6 and 7) in the same manner as in Example <1-2>.

[2] = system: collagen; assay: RT-PCR analysis of collagen transcript in foreskin fibroblast cells; format: cell-based
Protocol: (§3) In order to measure the collagen transcript RNA induced by the AIMP1, foreskin fibroblast cells (5×10^4 cells/well; obtained from MTT; accession number: MC1232) were cultured in 10% serum-containing DMEM medium on a 6-well plate for 12 hours and then cultured in serum-free medium for about 3 hours. Next, the cultured cells were treated with the AIMP1 (SEQ ID NO: 1) at varying AIMP1 concentrations of 0, 20, 50, 100 and 200 nM for 6 hours (RT-PCR) or 12 hours (Western blot).
The cells treated with the AIMP1 at varying concentrations in Example <1-1> were collected and dissolved in TRIzol (invitrogen). 10% by weight of chloroform was added to the cell lysate, and mixed well. The mixture was centrifuged at 12,000 g for 15 minutes and the supernatant was collected. Ethanol was added to the collected supernatant to a final concentration of 70%. Then, the supernant was centrifuged at 26,000 g for 5 minutes and the precipitant was collected. The precipitant was dried and dissolved in sterilized distilled water, and the total RNA was extracted. 3 μg of the total RNA was used to prepare cDNA. Then, the cDNA was amplified by PCR using collagen-specific primers (SEQ ID NO: 4 and SEQ ID NO: 5). At this time, for use as a control group, the cDNA was subjected to PCR using GADPH-specific primers (SEQ ID NO: 6 and SEQ ID NO: 7). The PCR reaction consisted of: pre-denaturation of the template DNA at 95° C. for 5 min, followed by 25 cycles of 1 min at 95° C., 1 min at 52° C. and 1 min at 72° C., and then a final extension for 5 min at 72° C.
(§4) Foreskin fibroblast cells (5×10^4 cells/well) were cultured in 10% serum-containing DMEM medium on a 6-well plate for 12 hours, and then, cultured in serum-free medium for about 3 hours. Next, the cultured cells were treated with 100 nM of the AIMP1 at various time intervals (0, 2, 4, 6, 12 and 24 hours).
as §1, §2

[3] = system: collagen; assay: Western blot analysis of collagen (anti-collagen I antibody) in foreskin fibroblast cells; format: cell-based
Protocol: as §3
The cells treated with the AIMP1 at varying AIMP1 concentrations in Example <1-1> were collected and lysed in a cell lysis buffer (50 mM HEPES, pH 7.5, 150 mM NaCl, 10% glycerol, 5 mM EGTA, 1 mM sodium orthovanadate, 10 mM NaF, 12 mM b-glycerophosphate, 1 mM DTT, 1 mM PMSF, […] aprotinin, and 1% NP40). Lysed cells were centrifuged at 26,000 g for 15 minutes and the cell extract was isolated. 30 μg of the cell extract was separated by 8% SDS-PAGE and immunoblotted with an anti-collagen I antibody (Abcam) according to any conventional method known in the art. As a control group, an anti-tubulin antibody (Sigma) was used.
as §4
Foreskin fibroblast cells (5×10^5 cells/well) were cultured in 10% serum-containing DMEM medium on a 6-well plate for 48 hours and then cultured in serum-free medium for about 3 hours. Next, the cultured cells were treated with each of the AIMP1 (SEQ ID NO: 1) and the AIMP1 N-terminal fragments (SEQ ID NOS: 2 and 12) at a concentration of 200 nM for 12 hours. As a control group, cells without treatment were used.
The cells treated with each of the AIMP1 and its N-terminal fragments and the control cells were collected at the indicated time and subjected to Western blot analysis in the same manner as in Example <1-3>.

[4] = system: collagen; assay: Collagen immunofluorescent staining of wound site in wild-type and AIMP1-deficient mice; format: in vivo, mouse; conditions: WT and AIMP1-/- mice; 4 μg applied on wound site twice a day until 3 days after wounding; FIG. 3
From the text: By the gene trap method known in the art (Zambrowicz, B. P., et al., Nature 392:608-611, 1998; Kim J Y et al., Proc. Natl. Acad. Sci. USA 99:7912-7916, 2002), a mutation in the AIMP1 gene of a male C57BL6 mouse was induced to prepare a AIMP1 gene deficient homozygous mouse (AIMP1^−/− mouse, Ho) (Park S. G. et al., Am. J. Pathol., in press: 2005). Then, on the back of each of the 8-week-old homozygous mouse and wild-type mouse (AIMP1^+/+ mice, WT), a circular cut-off window with a diameter of 0.5 cm was made with scissors. The wound site was left to stand without dressing. 4 μg of the AIMP1 prepared in Reference Example 1 was dissolved in 5 μl of 20% glycerol-containing PBS and applied on the wound site. The AIMP1 applied twice a day until 3 days after wounding. A control group (AIMP1-untreated group) was treated with 20% glycerol-containing PBS. Then, the tissue of the wound site was isolated using scissors and fixed in 4% paraformaldehyde overnight. The fixed tissue was washed with PBS, incubated in 30% sucrose solution for 4 hours, and then mixed with an OCT (optimal cutting temperature) compound and frozen at −70° C.
6 μm of the frozen section was attached to a silane-coated slide and washed with PBS. Then, the slide was blocked with PBS containing 0.1% tween 20 and 1% non-fat dry milk and allowed to react with an anti-collagen I antibody (Abcam) at 37° C. for 2 hours. […]

B1: AIMP1: ARS-interacting multi-functional protein 1, a protein consisting of 312 amino acids (SEQ ID NO: 1) (protein, listed as Homo sapiens)
chain: MANNDAVLKRLEQKGAEADQIIEYLKQQVSLLKEKAILQATLREEKKLRVENAKLKKEIEELKQELIQAEIQNGVKQIAFPSGTPLHANSMVSENVIQSTAVTTVSSGTKEQIKGGTGDEKKAKEKIEKKGEKKEKKQQSIAGSADSKPIDVSRLDLRIGCIITARKHPDADSLYVEEVDVGEIAPRTVVSGLVNHVPLEQMQNRMVILLCNLKPAKMRGVLSQAMVMCASSPEKIEILAPPNGSVPGDRITFDAFPGEPDKELNPKKKIWEQIQPDLHTNDECVATYKGVPFEVKGKGVCRAQTMSNSGIK
expression of KGF (RT-PCR) [1]: increased
synthesis of collagen (RT-PCR), varying concentrations ([2]; 0, 20, 50, 100 and 200 nM for 6 hours, FIG. 1 upper): stimulated the synthesis of collagen in fibroblast cells in dose-dependent manners
synthesis of collagen (RT-PCR), various time intervals ([2]; 100 nM, 0, 2, 4, 6, 12 and 24 hours, FIG. 2 upper): stimulated the synthesis of collagen in fibroblast cells in time-dependent manners
synthesis of collagen, protein levels (Western blot), varying concentrations ([3]; 0, 20, 50, 100 and 200 nM for 12 hours, FIG. 1 bottom): stimulated the synthesis of collagen in fibroblast cells in dose-dependent manners
synthesis of collagen, protein levels (Western blot), various time intervals ([3]; 100 nM, 0, 2, 4, 6, 12 and 24 hours, FIG. 2 bottom): stimulated the synthesis of collagen
synthesis of collagen, protein levels (Western blot), compared with cells without treatment ([3]; 200 nM for 12 hours, FIG. 7): more stimulated
amount of collagen at wound site (immunofluorescence) [4]: further increased

Reference: patent publication US20100167997A1, “METHOD FOR STIMULATION COLLAGEN SYNTHESIS AND/OR KGF EXPRESSION” (ATYR PHARMA, INC., priority 2005, published 2010)
